Assay [1] has as its target T1, CD19 expressed by Nalm6 cells (UniProt P15391 20-556).
T1 chain: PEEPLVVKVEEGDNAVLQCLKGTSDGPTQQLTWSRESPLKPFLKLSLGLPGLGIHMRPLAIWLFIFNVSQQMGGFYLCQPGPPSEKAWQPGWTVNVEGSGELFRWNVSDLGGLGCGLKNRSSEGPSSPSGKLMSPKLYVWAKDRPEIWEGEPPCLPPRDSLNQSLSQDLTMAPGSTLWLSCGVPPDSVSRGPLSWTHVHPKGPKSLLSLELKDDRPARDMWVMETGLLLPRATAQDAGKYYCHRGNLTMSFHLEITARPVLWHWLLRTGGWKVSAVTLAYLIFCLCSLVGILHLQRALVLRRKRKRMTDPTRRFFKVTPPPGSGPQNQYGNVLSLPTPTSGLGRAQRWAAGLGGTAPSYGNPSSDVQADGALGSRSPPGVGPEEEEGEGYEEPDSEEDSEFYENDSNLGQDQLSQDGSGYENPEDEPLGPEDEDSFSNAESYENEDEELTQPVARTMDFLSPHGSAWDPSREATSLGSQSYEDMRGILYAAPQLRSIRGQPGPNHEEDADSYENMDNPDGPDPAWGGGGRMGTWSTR
Put plainly: flow cytometry. Background: A flow cytometer gives signals particle by particle.

Assay [2] concerns the target T2, hCD19-his (human CD19 recombinant protein, Pro20-Lys291, His tag at C-terminus) (human, UniProt P15391 20-291).
T2 construct: range 20-291; also called human CD19-His
T2 sequence (looked up): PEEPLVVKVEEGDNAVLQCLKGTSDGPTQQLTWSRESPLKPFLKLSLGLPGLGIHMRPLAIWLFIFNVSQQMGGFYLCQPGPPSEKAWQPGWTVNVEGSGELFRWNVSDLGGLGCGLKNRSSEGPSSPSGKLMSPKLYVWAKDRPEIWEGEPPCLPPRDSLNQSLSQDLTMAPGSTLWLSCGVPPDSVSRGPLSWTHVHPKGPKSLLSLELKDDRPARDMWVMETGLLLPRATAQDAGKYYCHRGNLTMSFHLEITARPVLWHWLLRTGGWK
Briefly: ELISA, coated hCD19-His. On the procedure:
The antibodies were screened by ELISA according to Example 2. Briefly, […] of hCD19-His (ACRO) were spread and incubated. The purified antibodies were serially diluted to bind the incubated antigen. The binding signal of each antibody could be detected with HRP-labeled goat anti-rat Fc antibody.
Graphpad Prism software was used to calculate the fitting data.
(ELISA stands for enzyme-linked immunosorbent assay.)

Another assay addresses T3, h41BB (human, UniProt Q07011 24-186).
T3 construct: Coated antigen of the specificity ELISA
Put plainly: ELISA, coated antigen 0.5 µg/ml. The procedure: (§1) According to the method described in Example 4, 0.5 μg/ml of hCD19-His, hVISTA-his, hPD-L1, hCD40, h41BB and hLAG3 were spread and incubated respectively, and 2μg/ml of purified antibodies were added to bind the incubated antigen. The binding signal of each antibody could be detected with HRP-labeled goat anti-rat Fc antibody.

A further assay deals with T4, hLAG3 (human, UniProt P18627 23-450, limits assumed).
T4 construct: Coated antigen of the specificity ELISA
T4 sequence (looked up): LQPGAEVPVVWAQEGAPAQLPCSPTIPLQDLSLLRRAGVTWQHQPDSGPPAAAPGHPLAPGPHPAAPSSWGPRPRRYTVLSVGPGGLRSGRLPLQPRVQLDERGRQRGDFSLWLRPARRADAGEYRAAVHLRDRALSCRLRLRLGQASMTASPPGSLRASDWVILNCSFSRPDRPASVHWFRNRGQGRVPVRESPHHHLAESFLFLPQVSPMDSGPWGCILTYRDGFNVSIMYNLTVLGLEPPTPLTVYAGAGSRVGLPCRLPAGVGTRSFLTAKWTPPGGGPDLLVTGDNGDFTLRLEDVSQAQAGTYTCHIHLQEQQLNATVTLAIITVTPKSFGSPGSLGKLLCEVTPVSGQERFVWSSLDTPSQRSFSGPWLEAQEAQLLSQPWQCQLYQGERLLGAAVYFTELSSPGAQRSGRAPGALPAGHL
Put plainly: ELISA, coated antigen 0.5 µg/ml. The procedure: as §1

The target in the next assay is T5, hVISTA-his (human, UniProt Q9H7M9 33-194).
T5 construct: Coated antigen of the specificity ELISA
T5 sequence (looked up): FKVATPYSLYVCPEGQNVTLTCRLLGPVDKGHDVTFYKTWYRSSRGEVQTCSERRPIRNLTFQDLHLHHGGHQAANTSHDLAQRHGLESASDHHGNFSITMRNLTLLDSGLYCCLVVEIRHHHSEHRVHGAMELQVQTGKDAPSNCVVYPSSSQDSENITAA
Put plainly: ELISA, coated antigen 0.5 µg/ml. On the procedure: as §1

A further assay concerns the target T6, hCD40 (human, UniProt P25942 21-193).
T6 construct: Coated antigen of the specificity ELISA
Briefly: ELISA, coated antigen 0.5 µg/ml. On the procedure: as §1

A further assay addresses T7, hPD-L1 (human, UniProt Q9NZQ7 19-238, limits assumed).
T7 construct: Coated antigen of the specificity ELISA
Briefly: ELISA, coated antigen 0.5 µg/ml. The procedure:
as §1

The target in assay [3] is T8, CD19 expressed by Nalm6 cells (UniProt P15391 20-556, limits assumed).
T8 construct: whole, on cells; Endogenous CD19 on tumor cell lines; also called Nalm6/GL; CD19 antigen on RAJI-GL and NALM6-GL tumor cells
T8 sequence (looked up): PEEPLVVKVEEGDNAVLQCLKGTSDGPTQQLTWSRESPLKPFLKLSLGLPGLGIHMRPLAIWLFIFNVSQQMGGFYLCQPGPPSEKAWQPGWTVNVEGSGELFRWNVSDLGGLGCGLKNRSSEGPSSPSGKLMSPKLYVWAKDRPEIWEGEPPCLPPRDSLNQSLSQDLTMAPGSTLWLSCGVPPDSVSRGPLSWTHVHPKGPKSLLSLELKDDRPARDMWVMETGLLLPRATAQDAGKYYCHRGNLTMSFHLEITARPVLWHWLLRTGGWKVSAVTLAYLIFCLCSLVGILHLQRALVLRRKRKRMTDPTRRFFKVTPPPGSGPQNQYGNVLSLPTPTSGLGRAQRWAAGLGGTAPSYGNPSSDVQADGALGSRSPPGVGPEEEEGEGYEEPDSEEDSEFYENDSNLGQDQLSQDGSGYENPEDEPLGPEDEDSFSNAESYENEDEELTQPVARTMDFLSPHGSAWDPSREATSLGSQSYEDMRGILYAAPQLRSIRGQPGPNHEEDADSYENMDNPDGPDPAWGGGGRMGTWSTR
Put plainly: flow cytometry on Nalm6 cells. On the procedure:
The CD19-expressing tumor cells Nalm6 in logarithmic growth phase were collected and resuspended in PBS at a cell density of 10⁵/well, 100 μl/well. The diluted CD19 antibodies were added into the well and incubated at 4° C. for 1 hour. The cells were washed three times with flow cytometry wash buffer. Anti-rat IgG-Alexa Fluor 647 (Abcam, Cat #ab150163) was added and incubated at 4° C. for 1 hour. The cells were washed three times with flow cytometry wash buffer. The samples were analyzed by flow cytometry. The results are shown in FIG. 3 and Table 4, as follows: […]

As usually defined, the EC50 is the midpoint of the concentration-response curve.

T7 sequence (Q9NZQ7 19-238 limits assumed): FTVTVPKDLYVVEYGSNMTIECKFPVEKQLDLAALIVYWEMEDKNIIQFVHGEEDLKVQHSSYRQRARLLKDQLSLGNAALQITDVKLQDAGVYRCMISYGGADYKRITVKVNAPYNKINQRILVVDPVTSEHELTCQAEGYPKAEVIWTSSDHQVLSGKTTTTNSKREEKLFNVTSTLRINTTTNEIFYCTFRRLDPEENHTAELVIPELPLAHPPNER
T6 sequence (P25942 21-193 limits assumed): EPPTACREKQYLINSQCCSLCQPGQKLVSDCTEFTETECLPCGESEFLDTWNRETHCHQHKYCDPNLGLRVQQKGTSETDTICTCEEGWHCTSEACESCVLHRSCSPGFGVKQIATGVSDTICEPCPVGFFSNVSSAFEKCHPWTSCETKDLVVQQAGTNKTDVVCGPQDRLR

B1: 15F2 (hybridoma antibody) (antibody, V domains shown)
VH: QVQLVESGGGVVQPGRSLRLSCAASGFTFSRHGMHWVRQAPGKGLEWVAVIWYDGSNKYYVDSVKGRFTISRDNSKNTLDLQMNSLRAEDTAVYYCARRSITWDGAFDIWGQGTMVTVSS
VL: DIQMTQSPSTLSASVGDRVTVTCRASQSIRSWLAWYQQKPGKAPKLLIYKASSLESGVPSRFSGSGSGTEFTLTISSLQPDDFATYYCQQYNSAYTFGQGTKLEIK
notes: hybridoma mAb from H2L2 mouse (human variable, rat constant regions)
As to B1, the values for the EC50 in assay [1] and in assay [2] were 24.6 µg/mL and 0.0287 µg/mL, respectively. For the same molecule, the binding result in the assay with h41BB, with hLAG3, with hVISTA-his, with hCD40 and in the assay with hPD-L1 was “no binding (tested: 2 µg/ml)” in each case. In addition, the “Maximum mean fluorescence intensity (30 µg/ml)” value in assay [3] was found to be 21700.

B2: 17B6 (hybridoma antibody) (antibody, V domains shown)
VH: QVQLVESGGGVVQPGRSLRLSCEASGFTFSRHGMHWVRQAPGKGLEWVAVIFYDGSQNYYADSVRGRFTISRDNSKNTLSLQMDSLRAEDTAVYYCARRSITWNGGFDIWGQGTMVTVSP
VL: DIQMTQSPSTLSASVGDRVTITCRASQSISSWLAWYQQKPGKAPKLLIYKASSLESGVPSRFSGSGSGTEFTLAISSLQPDDFATYYCQQYNRFYTFGQGTKLEIK
notes: as for B1
Consider B2, for which the EC50 stood at 36.9 µg/mL in assay [1] and 0.176 µg/mL in assay [2]. The binding result with h41BB, with hLAG3, with hVISTA-his, with hCD40 and in the assay with hPD-L1 was “no binding (tested: 2 µg/ml)” throughout. Besides, in assay [3], the “Maximum mean fluorescence intensity (30 µg/ml)” value amounted to 25500.

B3: 27F11 (hybridoma antibody) (antibody, V domains shown)
VH: QVQLVESGGGVVQPGRSLRLSCAASGFTFSRHGMHWVRQAPGKGLEWVAVIYYDGSNKYYVDSVKGRFTISRDNSKNTLDLQMNSLRAEDTAVYYCARRSITWNGAFDIWGQGTMVTVSS
VL: DIQMTQSPSTLSASVGDRVTISCRASQSISSWLAWYQQKPGKAPKLLIYKASSLESGVPSRFSGSGSGTEFTLTISSLQPDDFATYYCQQYNSAYTFGQGTKLEIK
notes: as for B1
Take B3: the EC50 amounted to 57.3 µg/mL in assay [1] and 0.0672 µg/mL in assay [2]. Moreover, the binding result with h41BB, with hLAG3, with hVISTA-his, in the assay with hCD40 and with hPD-L1 was “no binding (tested: 2 µg/ml)” each time. Besides, the “Maximum mean fluorescence intensity (30 µg/ml)” value in assay [3] is 30000.

B4: 52F9 (hybridoma antibody) (antibody, V domains shown)
VH: QVQLVESGGGVVQAGRSLRLSCAASGFTFSNYGIHWVRQAPGKGLEWVGVIWHDGSIKNYADFVKGRFTISRDNSEDTLYLQMNSLRAEDTAVYYCAREQGNYYGWGSYKAFDIWGQGTMVTVSS
VL: DIQLTQSPSFLSVFVGDRVTITCRASQGISNYLAWYQQKPGKAPELLLYATSTLQSGVPSRLSGSGSGTEFTLTLSSLQPEDFATYYCQQVYSFPYTFGQGTKLEIK
notes: as for B1
In the case of B4, the EC50 came to 1.87 µg/mL in assay [1] and 0.0592 µg/mL in assay [2]. Further, the binding result with h41BB, with hLAG3, with hVISTA-his, with hCD40 and with hPD-L1 was “no binding (tested: 2 µg/ml)” throughout. Also, the “Maximum mean fluorescence intensity (30 µg/ml)” value in assay [3] is 5160.

The values are drawn from patent publication US20210238253A1 (GUANGDONG ZHAOTAI INVIVO BIOMEDICINE, published 2021).
